Measurements from patent US7605127.

Tests used:
[1] = molecular target: c-met protooncogene product (HGF receptor) on B5/589 human mammary epithelial cells (human) (UniProt P08581); assay: competition of 125I-HGF/NK1 cross-linking to B5/589 cells by excess unlabeled HGF/NK1 or HGF/SF
[2] = molecular target: c-met protooncogene product (HGF receptor) on B5/589 human mammary epithelial cells (human) (UniProt P08581); assay: cell-based or functional assay

- affinity for Met relative to full-length HGF/SF (fold of HGF/SF affinity) [1]: 0.25
- [3H]-thymidine incorporation in B5/589 cells, percent of the maximal DNA synthesis elicited by HGF/SF (% of maximal HGF/SF response at 8 nM) [2]: 20
- inhibition of HGF/SF mitogenic activity in the B5/589 bioassay: molar excess for ~50% reduction (fold molar excess over HGF/SF) [2]: 20
Substance: HGF/NK1 (truncated HGF variant; N-terminal domain and first kringle domain), eukaryotically expressed from the pH46 (2.2 kb) coding region (from UniProt P14210 32-210) (ligand)
